The record followed here is publication PMC9569133 (Biochemistry, 2021).

This data set deals with the molecule itself. Nature of the data set: native MS.

B1: Kir3.2, full-length, human (natural protein, UniProt P48051 1-423, looked up)
chain: MAKLTESMTNVLEGDSMDQDVESPVAIHQPKLPKQARDDLPRHISRDRTKRKIQRYVRKDGKCNVHHGNVRETYRYLTDIFTTLVDLKWRFNLLIFVMVYTVTWLFFGMIWWLIAYIRGDMDHIEDPSWTPCVTNLNGFVSAFLFSIETETTIGYGYRVITDKCPEGIILLLIQSVLGSIVNAFMVGCMFVKISQPKKRAETLVFSTHAVISMRDGKLCLMFRVGDLRNSHIVEASIRAKLIKSKQTSEGEFIPLNQTDINVGYYTGDDRLFLVSPLIISHEINQQSPFWEISKAQLPKEELEIVVILEGMVEATGMTCQARSSYITSEILWGYRFTPVLTLEDGFYEVDYNSFHETYETSTPSLSAKELAELASRAELPLSWSVSSKLNQHAELETEEEEKNLEEQTERNGDVANLENESKV
With B1, the “stoichiometry N” value was determined as 4.

A word on the stoichiometry N: it is the number of molecules, sites or subunits per partner or assembly.
